The results in this text go back to the supplement of paper PMC7877785.

± gives the uncertainty stated by the source.

The data set is described as follows: self-splicing fitness, log relative to wild type (ln ratio); higher = more splicing; Tetrahymena group I intron in knt gene, E. coli kanamycin selection, DiMSum; sequences stand for … in CUCUCU…GGAGGGAAAAGUUAUCAGGCAUGCACCUGGUAGCUAGUCUUUAAACCAAUAGAUUGCAUCGGUUUAAAAGGCAAGACCGUCAAAUUGCGGGAAAGGGGUCAACAGCCGUUCAGUACCAAGUCUCAGGGGAAACUUUGAGAUGGCCUUGCAAAGGGUAUGGUAAUAAGCUGACGGACAUGGUCCUAACCACGCAGCCAAGUCCUAAGUCAACAGAUCUUCUGUUGAUAUGGAUGCAGUUCACAGACUAAAUGUCGGUCGGGGAAGAUGUAUUCUUCUCAUAAGAUAUAGUCGGACCUCUCCUUAAUGGGAGCUAGCGGAUGAAGUGAUGCAACACUGGAGCCGCUGGGAACUAAUUUGUAUGCGAAAGUAUAUUGAUUAGUUUUGGAGUACUCGUGGUCG
The gist of the method:
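Fitness was computed with DiMSum as the error-weighted combination of replicate fold changes, kanamycin versus none, each normalised to wild type. The library randomised all eight intron nucleotides of the P1ex region, with the intron placed in the knt kanamycin-resistance gene on pET-22b(+) in E. coli BL21(DE3). Six replicate transformations were grown overnight at 37°C or 30°C on LB agar with or without 25 μg/mL kanamycin, plus 100 μg/mL carbenicillin, 50 μM IPTG and 0.2% rhamnose. Pooled colonies were amplicon-sequenced on an Illumina HiSeq 2500.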

Consider AACGAGCAAUAUUACGUUUG, for which the “self-splicing fitness (ln)” value runs as follows: (30 °C) -3.6 ± 0.2; (37 °C) -2.45 ± 0.28.
AACUAGCAAUAUUACGACAG: the “self-splicing fitness (ln)” value (30 °C) was -1.7 ± 0.14 and the “self-splicing fitness (ln)” value (37 °C) is -0.514 ± 0.13.
For AACUAGCAAUAUUACGACCC, the “self-splicing fitness (ln)” value (37 °C) is -0.568 ± 0.41.
Turning to AACUAGCAAUAUUACGAGCU, the “self-splicing fitness (ln)” value is -1.5 ± 0.095 (30 °C) and -0.511 ± 0.11 (37 °C).
Consider AACUAGCAAUAUUACGAGUA, for which the “self-splicing fitness (ln)” value reads like this: (30 °C) -0.62 ± 0.07; (37 °C) -0.322 ± 0.083.
As for AACUAGCAAUAUUACGAUAC, the “self-splicing fitness (ln)” value reads like this: (30 °C) -3.15 ± 0.23; (37 °C) -1.24 ± 0.34.
Take AACUAGCAAUAUUACGAUUC: the “self-splicing fitness (ln)” value is -1.81 ± 0.094 (30 °C) and -0.882 ± 0.11 (37 °C).
On to AACUAGCAAUAUUACGCCGC, for which the “self-splicing fitness (ln)” value (30 °C) is -2.1 ± 0.23.
Turning to AACUAGCAAUAUUACGCGCG, the “self-splicing fitness (ln)” value (30 °C) is -0.639 ± 0.082 and the “self-splicing fitness (ln)” value (37 °C) was -0.378 ± 0.12.
For AACUAGCAAUAUUACGCGGU the same measures were -4.59 ± 0.29 and -0.982 ± 0.17.
Consider AACUAGCAAUAUUACGCUAC, for which the “self-splicing fitness (ln)” value by setting is: (30 °C) -3.46 ± 0.22; (37 °C) -1.34 ± 0.14.
AACUAGCAAUAUUACGCUCG: the “self-splicing fitness (ln)” value was -0.797 ± 0.1 (30 °C) and -0.51 ± 0.13 (37 °C).
Regarding AACUAGCAAUAUUACGGCGC, the “self-splicing fitness (ln)” value (30 °C) was -0.8 ± 0.13 and the “self-splicing fitness (ln)” value (37 °C) was -0.34 ± 0.16.
On to AACUAGCAAUAUUACGGCUA, for which the “self-splicing fitness (ln)” value runs as follows: (30 °C) -1.08 ± 0.11; (37 °C) -1.22 ± 0.11.
For the sequence AACUAGCAAUAUUACGGCUU, the “self-splicing fitness (ln)” value reads like this: (30 °C) 0.0162 ± 0.065; (37 °C) -0.0298 ± 0.091.
Regarding AACUAGCAAUAUUACGGGUG, the “self-splicing fitness (ln)” value was -0.377 ± 0.049 (30 °C) and -0.0736 ± 0.07 (37 °C).
Take AACUAGCAAUAUUACGGUUG: the “self-splicing fitness (ln)” value was -1.36 ± 0.1 (30 °C) and -0.299 ± 0.11 (37 °C).
For AACUAGCAAUAUUACGUACG the same measures were -1.15 ± 0.079 and -0.237 ± 0.096.
For AACUAGCAAUAUUACGUAGU the same measures were -2.24 ± 0.084 and -1.39 ± 0.12.
Turning to AACUAGCAAUAUUACGUAUA, the “self-splicing fitness (ln)” value reads like this: (30 °C) -2.05 ± 0.11; (37 °C) -0.938 ± 0.12.
As for AACUAGCAAUAUUACGUCAA, the “self-splicing fitness (ln)” value was -2.66 ± 0.18 (30 °C) and -2.13 ± 0.15 (37 °C).
Take AACUAGCAAUAUUACGUCUA: the “self-splicing fitness (ln)” value (30 °C) is -0.702 ± 0.097 and the “self-splicing fitness (ln)” value (37 °C) was -0.347 ± 0.1.
For AACUAGCAAUAUUACGUGUA the same measures were -2.2 ± 0.09 and -0.888 ± 0.09.
Regarding AACUAGCAAUAUUACGUGUU, the “self-splicing fitness (ln)” value (30 °C) is -2.68 ± 0.11 and the “self-splicing fitness (ln)” value (37 °C) was -2.45 ± 0.16.
As for AACUAGCAAUAUUACGUUUG, the “self-splicing fitness (ln)” value was -3.27 ± 0.15 (30 °C) and -1.72 ± 0.14 (37 °C).
On to AAGAAGCAAUAUUACGAAAU, for which the “self-splicing fitness (ln)” value was -1.98 ± 0.17 (30 °C) and -2.03 ± 0.19 (37 °C).
On to AAGAAGCAAUAUUACGACAC, for which the “self-splicing fitness (ln)” value was -0.918 ± 0.12 (30 °C) and -0.625 ± 0.14 (37 °C).
For AAGAAGCAAUAUUACGACCA the same measures were -0.349 ± 0.1 and -0.795 ± 0.2.
Consider AAGAAGCAAUAUUACGAGAU, for which the “self-splicing fitness (ln)” value is -3.43 ± 0.18 (30 °C) and -1.56 ± 0.14 (37 °C).
For AAGAAGCAAUAUUACGAGCG the same measures were -0.646 ± 0.14 and -0.754 ± 0.2.
For the sequence AAGAAGCAAUAUUACGCACC, the “self-splicing fitness (ln)” value was -1.11 ± 0.12 (30 °C) and -0.644 ± 0.15 (37 °C).
AAGAAGCAAUAUUACGCAGU: the “self-splicing fitness (ln)” value was -2.66 ± 0.18 (30 °C) and -2.08 ± 0.15 (37 °C).
Regarding AAGAAGCAAUAUUACGCAUU, the “self-splicing fitness (ln)” value runs as follows: (30 °C) -2.89 ± 0.21; (37 °C) -1.52 ± 0.21.
For AAGAAGCAAUAUUACGCCCU the same measures were 0.319 ± 0.11 and 0.0852 ± 0.12.
Turning to AAGAAGCAAUAUUACGCCUC, the “self-splicing fitness (ln)” value (30 °C) is -1.82 ± 0.26 and the “self-splicing fitness (ln)” value (37 °C) is -1.85 ± 0.27.
Take AAGAAGCAAUAUUACGCUAA: the “self-splicing fitness (ln)” value by setting is: (30 °C) -1.69 ± 0.14; (37 °C) -0.682 ± 0.15.
For AAGAAGCAAUAUUACGCUGC the same measures were -2.58 ± 0.32 and -1.75 ± 0.35.
AAGAAGCAAUAUUACGGACC: the “self-splicing fitness (ln)” value is -1.28 ± 0.13 (30 °C) and -0.312 ± 0.18 (37 °C).
Consider AAGAAGCAAUAUUACGGAGG, for which the “self-splicing fitness (ln)” value is -3.92 ± 0.29 (30 °C) and -2.96 ± 0.32 (37 °C).
For AAGAAGCAAUAUUACGGAGU the same measures were -3.02 ± 0.15 and -2.86 ± 0.17.
Regarding AAGAAGCAAUAUUACGGCCU, the “self-splicing fitness (ln)” value is, setting by setting: (30 °C) -0.278 ± 0.11; (37 °C) -0.574 ± 0.14.
With AAGAAGCAAUAUUACGGCUC, the “self-splicing fitness (ln)” value is -1.19 ± 0.12 (30 °C) and -0.0707 ± 0.15 (37 °C).
As for AAGAAGCAAUAUUACGGCUG, the “self-splicing fitness (ln)” value was -0.496 ± 0.077 (30 °C) and -0.25 ± 0.12 (37 °C).
On to AAGAAGCAAUAUUACGGUAA, for which the “self-splicing fitness (ln)” value is -2.01 ± 0.19 (30 °C) and -0.929 ± 0.16 (37 °C).
Regarding AAGAAGCAAUAUUACGGUCC, the “self-splicing fitness (ln)” value by setting is: (30 °C) -1.1 ± 0.14; (37 °C) 0.249 ± 0.16.
On to AAGAAGCAAUAUUACGGUGG, for which the “self-splicing fitness (ln)” value is -2.93 ± 0.13 (30 °C) and -1.98 ± 0.13 (37 °C).
For AAGAAGCAAUAUUACGUACC the same measures were -0.392 ± 0.14 and 0.219 ± 0.19.
Regarding AAGAAGCAAUAUUACGUACU, the “self-splicing fitness (ln)” value (30 °C) amounted to 0.124 ± 0.082 and the “self-splicing fitness (ln)” value (37 °C) is 0.141 ± 0.099.
Regarding AAGAAGCAAUAUUACGUAGG, the “self-splicing fitness (ln)” value was -2.09 ± 0.082 (30 °C) and -1.14 ± 0.12 (37 °C).
On to AAGAAGCAAUAUUACGUCAA, for which the “self-splicing fitness (ln)” value is, setting by setting: (30 °C) -1.78 ± 0.11; (37 °C) -0.843 ± 0.088.
For AAGAAGCAAUAUUACGUGGC the same measures were -4.15 ± 0.22 and -2.99 ± 0.2.
For the sequence AAGCAGCAAUAUUACGAAAG, the “self-splicing fitness (ln)” value by setting is: (30 °C) -3.93 ± 0.23; (37 °C) -2.29 ± 0.17.
AAGCAGCAAUAUUACGACAG: the “self-splicing fitness (ln)” value is, setting by setting: (30 °C) -3.04 ± 0.13; (37 °C) -1.54 ± 0.12.
As to AAGCAGCAAUAUUACGACGU, the “self-splicing fitness (ln)” value reads like this: (30 °C) -0.298 ± 0.067; (37 °C) 0.18 ± 0.077.
For AAGCAGCAAUAUUACGAUCA, the “self-splicing fitness (ln)” value (30 °C) is -1.28 ± 0.091 and the “self-splicing fitness (ln)” value (37 °C) is -0.405 ± 0.11.
Take AAGCAGCAAUAUUACGCCUG: the “self-splicing fitness (ln)” value is -2.41 ± 0.13 (30 °C) and -1.58 ± 0.14 (37 °C).
AAGCAGCAAUAUUACGCGAC: the “self-splicing fitness (ln)” value was -0.688 ± 0.22 (30 °C) and -1.95 ± 0.25 (37 °C).
For AAGCAGCAAUAUUACGCGCU the same measures were -2.53 ± 0.11 and -1.73 ± 0.11.
As to AAGCAGCAAUAUUACGCGGA, the “self-splicing fitness (ln)” value is, setting by setting: (30 °C) -2.59 ± 0.13; (37 °C) -1.46 ± 0.11.
For AAGCAGCAAUAUUACGCGUA the same measures were -1.57 ± 0.11 and -0.515 ± 0.1.
For AAGCAGCAAUAUUACGGCGC the same measures were -0.59 ± 0.2 and -1.02 ± 0.19.
For AAGCAGCAAUAUUACGGGAC, the “self-splicing fitness (ln)” value is, setting by setting: (30 °C) -4.44 ± 0.46; (37 °C) -3.38 ± 0.39.
AAGCAGCAAUAUUACGGGUA: the “self-splicing fitness (ln)” value (30 °C) was -1.91 ± 0.15 and the “self-splicing fitness (ln)” value (37 °C) is -2.31 ± 0.16.
For AAGCAGCAAUAUUACGGGUU the same measures were -2.1 ± 0.094 and -1.61 ± 0.12.
For AAGCAGCAAUAUUACGGUCG the same measures were -1.34 ± 0.061 and -0.879 ± 0.093.
Consider AAGCAGCAAUAUUACGUCAA, for which the “self-splicing fitness (ln)” value by setting is: (30 °C) -1.1 ± 0.091; (37 °C) -1.36 ± 0.096.
As for AAGCAGCAAUAUUACGUGCU, the “self-splicing fitness (ln)” value is, setting by setting: (30 °C) -3.6 ± 0.15; (37 °C) -1.85 ± 0.11.
For AAGCAGCAAUAUUACGUUAG the same measures were -3.74 ± 0.18 and -2.52 ± 0.15.
As for AAGGAGCAAUAUUACGAAAA, the “self-splicing fitness (ln)” value was -2.9 ± 0.39 (30 °C) and -1.84 ± 0.35 (37 °C).
As to AAGGAGCAAUAUUACGAAUC, under “37 °C”, the “self-splicing fitness (ln)” value is -1.46 ± 0.36.
On to AAGGAGCAAUAUUACGACGG, for which the “self-splicing fitness (ln)” value (37 °C) was -0.954 ± 0.16.
With AAGGAGCAAUAUUACGAGAG, the “self-splicing fitness (ln)” value (30 °C) was -1.62 ± 0.17 and the “self-splicing fitness (ln)” value (37 °C) is -2.58 ± 0.34.
Regarding AAGGAGCAAUAUUACGAGUA, the “self-splicing fitness (ln)” value was -3.6 ± 0.43 (30 °C) and -3.21 ± 0.4 (37 °C).
As to AAGGAGCAAUAUUACGCACU, the “self-splicing fitness (ln)” value is, setting by setting: (30 °C) -1.53 ± 0.17; (37 °C) -0.454 ± 0.18.
On to AAGGAGCAAUAUUACGCCCC, for which the “self-splicing fitness (ln)” value runs as follows: (30 °C) -1.19 ± 0.47; (37 °C) -1.42 ± 0.46.
With AAGGAGCAAUAUUACGCGGU, the “self-splicing fitness (ln)” value is, setting by setting: (30 °C) -3.56 ± 0.26; (37 °C) -1.37 ± 0.26.
